The text below walks through data of the supplement of paper PMC12042874.

± gives the uncertainty stated by the source.

The nature of this data set: amyloid nucleation score (Sup35N fusion, yeast selection) (log enrichment); library NNK2; higher = more nucleation; inactive = no reads after selection. In a few lines: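 The nucleation score equals the log enrichment of output over input reads from DiMSum, centred on the mode score of non-aggregating sequences. It was computed only for sequences with 100 or more input reads. The reads came from Illumina sequencing of plasmid inserts from psi-negative yeast expressing Sup35N fused to peptides of 20 random codons, induced with 100 μM copper sulfate for 24 hours and grown 7 days at 30°C without adenine and uracil.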

In turn, HTDLTSKFFYLNWCGLSLLR registered an amyloid nucleation score of 3.39 ± 0.072.
In the case of EGVVSVRVFKYTGSYG it was 0.599 ± 0.8; in that of FRGITASYEPIGGARMSARE, -0.001 ± 0.62; in that of CGRTDNWGNDRNASRRHGGL, 0.694 ± 0.24.
In the case of VVFNFFCPNHGAVTMFSCFH it was 8.838 ± 0.03; in that of IPAMETSTLAGYGPYSHNFG, -0.629 ± 0.26; in that of TYIPGLVRTSLCGVA, -0.245 ± 0.35.
For the substance ASFCNVWGDNVWRYTLLRFK, the amyloid nucleation score entry is “inactive”.
In the case of LRVCNFCTFHFVWWS it was 4.8 ± 0.06.
The substance GDFSFCTHLLSYNLRGWPVV came in with an amyloid nucleation score of 0.192 ± 0.74.
Consider FRGDILRFL, for which the amyloid nucleation score entry is “inactive”.
The result for FKLFSFQVLYCSFDPCMHYT reads -1.33 ± 0.62; that for CNMFDCCK, 0.175 ± 0.42.
With GGCVYSVTLFFTWTEWGKAK, the amyloid nucleation score was -0.516 ± 0.79.
The result for IIKLPWFWDAFKAARQ reads -0.069 ± 0.3; that for YYRRNKIWSVSQQWGGIRSR, 0.596 ± 0.62.
In the case of MPEIREREMYGLVESLEYKK it was -0.147 ± 0.41.
With YELNSLMKMSYAEQFPKTWA, the amyloid nucleation score came out at 0.447 ± 0.46.
In the case of AVPNLGSVPYVVDLMI it was 0.907 ± 0.29; in that of FMSMLSCQAKTNLPMYATHM, -0.091 ± 0.79; in that of INVYRPFYIVRHY, 5.101 ± 0.044.
Regarding AFRFWFHGSMLVAHLSSWYY, the amyloid nucleation score turned out to be 2.88 ± 0.083.
The result for LRFRATLSVLLYLWDTSRHV reads 1.76 ± 0.26.
Take DVLALFYSYCALN: the amyloid nucleation score came to 0.049 ± 1.1.
In the case of TFAIIRIII it was 1.37 ± 0.33; in that of GTILPCNWNNLLYWVVGENA, 0.438 ± 0.25; in that of MFFNLAI, “inactive”.
The result for HVWLDLTYGNILQNRNCLTW reads -0.335 ± 0.25; that for IPCVMG, 0.004 ± 0.65.
The result for VTRSLLLCHFSTCCFSALTW reads -0.086 ± 0.32; that for RIFRYNDTVLCVLLGTNVGD, -0.418 ± 1.1; that for LYTFGFSFLWKYSRFHV, “inactive”.
For the substance GVPCRWTVPNANGSSVWSLR, the amyloid nucleation score was 0.776 ± 0.3.
The result for VDNYEQLTMKNEHETNT reads -0.902 ± 0.45; that for LSHLFSV, -0.381 ± 1.1.
With ILLGYIISR, the amyloid nucleation score is -0.636 ± 0.79.
In the case of LWVLTSRDDVFMVVFFMTPK, the amyloid nucleation score was -0.483 ± 0.5.
The result for VATAAEWVQAGLE reads 2.32 ± 0.11; that for SVECKCYYRL, 5.59 ± 0.062.
Regarding LLRCSLHNKLTLSFDFAFVV, the amyloid nucleation score result is “inactive”.
Turning to RIISCRN, the amyloid nucleation score stood at 0.331 ± 0.43.
The result for QLTRTVIYCLLFSAFHFYIS reads 2.39 ± 0.22; that for VTPTEGCSVSHVRSRSLKNA, -0.511 ± 0.49; that for IFEHS, 0.346 ± 0.61.
KLVLSNSALFRRTFAINPV: the amyloid nucleation score stood at 0.626 ± 0.8.
In the case of LTGCGDFSLLSIYFSRMHRG it was 5.2 ± 0.078; in that of EGNYFSGIS, -1.2 ± 0.48; in that of LQLVMKCRVKCAFLPGGMAW, 5.246 ± 0.048.
Turning to TPATVEYGDNCVYDY, the amyloid nucleation score was -0.987 ± 0.44.
The result for VSKRNDLQTSFLYMMHLALQ reads -0.536 ± 1; that for TGDMQVAVYCVILGGFSMGM, 4.44 ± 0.055; that for WTNVYAIVFR, 4.65 ± 0.044.
The result for TFNIGNELVT reads -0.99 ± 0.37; that for MTLVRFSRIGALKLCLQKES, -0.337 ± 0.39; that for VTTMRNSFKFYAIVMGLCSF, 0.272 ± 0.65.
In the case of LQVMEIYSLSIYYIYFLYIG it was “inactive”; in that of LIFLSDFLLPPSSPARDPYL, -0.719 ± 1.1.
As for VDRIESVSYLYSHDYNESGP, the amyloid nucleation score is -0.212 ± 0.53.
The result for PMCPMSIVLCSATLLLELFV reads 5.414 ± 0.037; that for LSEGCSLSTSVSMT, -0.392 ± 0.44; that for VRSMTELGPRLVAGK, 1.45 ± 0.33.
In the case of NLVCNSLFRDDKVSTELTEM it was “inactive”; in that of LFLSLRVRRYVQHKKSGSAG, 0.082 ± 1.1; in that of IMVVYETSVAGPRTSRGYCL, 4.729 ± 0.041.
In the case of HLFPAGRSKTHAVFWFQGKG it was 0.412 ± 0.37.
Take MGDSTIEVTLPVG: the amyloid nucleation score came to 0.987 ± 0.39.
The result for SGTDHNRMYF reads 0.312 ± 0.57; that for NQYMFFGSHRD, 0.424 ± 0.49.
For the substance YMRVLGVDGHIRCVWLD, the amyloid nucleation score entry is “inactive”.
The result for LCNSYYFFDSCVIEPYIPLL reads 5.646 ± 0.054.
In the case of MYRISPCVLRGY it was 0.366 ± 0.34; in that of DNCSLPSGTMGSDNSGGRIQ, -0.444 ± 0.32.
In the case of ALSSFT it was -1.28 ± 0.78.
On to TGAYI, for which the amyloid nucleation score was -1.94 ± 0.75.
The result for LGYDDGYVAGRGKADMFSLD reads “inactive”; that for TLCVGVFAHTAMRCRECHAA, 5.479 ± 0.043; that for YCKQNESVLDPSIDSLRVLP, 0.673 ± 0.26.
The result for YQAGWDEVGSLCLRVRNEKL reads 4.38 ± 0.074; that for ISSHVSCKSAFEAS, 0.395 ± 0.64.
In the case of LFVASVSLTAHNRGGDTWRR it was 5.8 ± 0.084; in that of TCKVRLRHVDYNCIMVLLLM, -0.359 ± 0.45; in that of THSHTSCKDASSEMRSPCNV, 0.264 ± 0.33.
KGQVLWTLGCMSIFVSMTNM displayed an amyloid nucleation score of 5.58 ± 0.078.
The result for GFEQRGIRVMFVPYDINFSV reads 6.269 ± 0.031.
Substance GYCPLGAPCAGM returned an amyloid nucleation score of 1.23 ± 0.2.
The result for KMSELWFVIKPWFWIMGLEK reads -0.403 ± 1.1; that for HNNFIFYFLLNLMICVHYGQ, 6.066 ± 0.036.
The result for MAGWLLNINLLMPIVGDVLQ reads 8.131 ± 0.056.
As to SVIEISECLERVVRWHRVAG, the amyloid nucleation score came out at 1.76 ± 0.33.
In the case of YSFVCIRIGPLKEVCKLNSC it was -0.774 ± 1.1.
As for SWMRFVKKIRQDAVRAVLIG, the amyloid nucleation score stood at 1.36 ± 0.4.
The result for VNLLFVVLCTMGSVSFKNSC reads 7.768 ± 0.036; that for SLDNWFTDSRAGVGLVFS, -0.277 ± 1; that for FLLHVCVADKVGVTSIHTCC, -0.181 ± 0.35.
In the case of LRQRY it was -0.233 ± 0.64; in that of SWKDYHN, “inactive”; in that of RLIYCVVGRCCNCSFYFTRM, 2.75 ± 0.09.
The result for RAKTNSVGDLQYGIHVPMKG reads -0.043 ± 0.37; that for VYALCMGLAWKGLDYHKGER, 5.68 ± 0.07; that for CTYHAQVFTFDHPGRSTRYS, -0.274 ± 0.76.
With WLYSIDYNFLKRVIGYCYRN, the amyloid nucleation score entry is “inactive”.
With NVCNTNWESVRKAWFSNMMV, the amyloid nucleation score is 0.775 ± 0.52.
The result for FMYHSYSGRPNNHAIGKHFR reads -0.405 ± 0.49; that for FNDGTQKSTLACVRNKYRVY, 0.633 ± 0.57.
The result for EVGVEGEIF reads -0.56 ± 0.4; that for GFRFLLKLLFGFKKV, “inactive”.
The result for WILYLRMNYWKRTCYHAIGM reads -0.214 ± 0.22; that for CGTGARVCYCYGFKLSSARG, 0.965 ± 0.6; that for FAGNAHGRRTG, 1.3 ± 0.31.
In turn, QMLDTRSLGNDYNYNVYSLA gave an amyloid nucleation score of -1.41 ± 0.39.
For SELKMWYTDMVSTSKLDCIL, the amyloid nucleation score is -0.125 ± 0.46.
The result for LIVCRFDFPSNFSVDFFRVM reads 0.14 ± 0.74.
The result for FINVLDSNLAQLWLLFTSWR reads 1.51 ± 0.14; that for NASVHPMFL, -0.24 ± 0.48; that for SYVVCSVIGYYDYLRSRPSC, 9.631 ± 0.036.
In the case of WYSVLSFDSFFWPWALLVVY it was -1.16 ± 0.49.
Regarding YYTCTLSRWRQSAYLGGRLR, the amyloid nucleation score was 0.284 ± 0.26.
Substance NVCIKLARCVVGLNLRFRGS came in with an amyloid nucleation score of -0.347 ± 0.79.
The result for LYWSLCDFCN reads “inactive”; that for YNPSYLMELNEV, -0.376 ± 0.55.
The result for DSDSFYIMPMVHMPNNFHRD reads -1.41 ± 1.1; that for GFSLC, 0.541 ± 0.66.
For the substance IVLLINRYMILMGEPNHA, the amyloid nucleation score was found to be 0.17 ± 0.35.
The result for SNVSGCMELFNWVGYFPVSP reads -0.733 ± 0.62.
The result for TVAWTSRLFSLAGLLHFDR reads 4.82 ± 0.062.
In the case of SISLEIHTAGTGKSRLPFYS it was 5.67 ± 0.073.
With GTCFQTINMGGCLIGGPG, the amyloid nucleation score was 2.69 ± 0.14.
The substance LNDNSIGSVILFFSAFLLFY had an amyloid nucleation score of 2.92 ± 0.12.
The result for NSRRQERWCFIMTLVDFDVV reads -0.431 ± 0.4; that for CYGYMIMSAFMVGHWEPDRM, 0.205 ± 0.77; that for EGFMSFPTN, “inactive”.
In the case of SLLLMDYFLYYYLSVEKRQR it was “inactive”; in that of FQSVLCYE, -0.708 ± 0.54.
The result for FDKRS reads “inactive”; that for LESYSQCTLTHSNCVLTDEC, 0.909 ± 0.57; that for SDHFKWV, -1.05 ± 1.
Take DSGRA: the amyloid nucleation score is -0.351 ± 0.63.
In the case of HLSRPGDAYTVMFT it was 5.845 ± 0.036.
The result for LYHDEALVWNLRDVSRIYRL reads 3.59 ± 0.1.
